The values below are quoted from earlier work in paper PMC2847397.

The data set has as its target Asp408 (UniProt position 408, GLLVDDAIVVV). The experiment in a line: chemical modification.

Turning to “Multidrug efflux pump subunit AcrB (RND transporter) (Escherichia coli)”, the pKa (in general, the negative logarithm of the acid dissociation constant) is recorded as 7.4.
